Bridge positions count the residues as written; N and C are the ends. Square brackets hold non-standard residues; d marks the D form. Peptide text beside a SMILES is read from it. R8 = C=CCCCCCC[C@@](C)(N)C(=O)O; S5 = C=CCCC[C@](C)(N)C(=O)O; βAla = NCCC(=O)O
Legend:
circular dichroism = settings: water; pH 7.0; 20 °C; 10-50 uM
HDM2 = biological target: T1, HDM2 (Homo sapiens, UniProt Q00987); assay: Kd (nM)
T1 construct: Co-Immunoprecipitation of FITC-SAH-p53 Peptides and Endogenous HDM2; endogenous in cells; host or cells: SJSA-1 osteosarcoma cells
T1 sequence (Q00987 whole entry, looked up): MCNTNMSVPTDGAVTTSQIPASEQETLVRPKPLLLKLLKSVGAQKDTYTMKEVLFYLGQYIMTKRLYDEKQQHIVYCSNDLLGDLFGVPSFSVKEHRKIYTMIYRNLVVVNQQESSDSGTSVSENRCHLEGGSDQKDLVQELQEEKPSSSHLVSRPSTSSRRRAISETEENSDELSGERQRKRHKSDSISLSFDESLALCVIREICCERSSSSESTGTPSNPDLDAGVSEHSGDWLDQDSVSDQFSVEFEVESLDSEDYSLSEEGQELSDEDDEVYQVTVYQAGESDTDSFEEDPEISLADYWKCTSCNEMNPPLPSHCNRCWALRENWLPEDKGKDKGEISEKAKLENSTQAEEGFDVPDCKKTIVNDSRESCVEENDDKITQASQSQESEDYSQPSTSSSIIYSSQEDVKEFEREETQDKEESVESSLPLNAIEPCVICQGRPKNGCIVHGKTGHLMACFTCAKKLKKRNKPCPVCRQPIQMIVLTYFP
Description: The patent's description of the figure: FIGS. 1A-1F Synthesis, Sequence, and Biochemical Analysis of SAH-p53 Peptides. FIG. 1A Non-natural amino acids were synthesized as described and cross-linked by ruthenium-catalyzed ring-closing olefin metathesis. […] Note: UAH-p53-8 is the “unstapled” form of SAH-p53-8.

RKO cells = assay: Annexin V binding as an indicator of apoptosis, RKO cells; type: cell-based; settings: 24 hours
Description: FIG. 9 Annexin V binding as an indicator of apoptosis.

Native HDM2 = biological target: T2, Native HDM2 (Homo sapiens, UniProt Q00987); assay: Co-immunoprecipitation of FITC-SAH-p53 peptides and endogenous HDM2; type: cell-based; settings: SJSA-1 cells
T2 construct: Co-Immunoprecipitation of FITC-SAH-p53 Peptides and Endogenous HDM2; endogenous in cells; host or cells: SJSA-1 osteosarcoma cells
T2 sequence (Q00987 whole entry): as the sequence (Q00987 whole entry, looked up) above
Description: FIG. 8 SJSA-1 cells were incubated with FITC-peptides followed by lysis and anti-FITC pull down.
SJSA-1 osteosarcoma cells (1×10^6) were treated with FITC-p53 peptides (15 μM) in serum-free media for 4 hours, followed by serum replacement and additional 8 hour incubation. The cells were thoroughly washed with serum-containing media and PBS and exposed to lysis buffer (50 mM Tris pH 7.6, 150 mM NaCl, 1% Triton-X100, 1 mM PMSF, 1 U mL^−1 benzonase nuclease [EMD Biosciences] and complete protease inhibitor tablet [Roche]) at room temperature. All subsequent steps were all performed at 4° C. The extracts were centrifuged, and the supernatants were incubated with protein A/G sepharose (50 μL 50% bead slurry per 0.5 mL lysatcs; Santa Cruz Biotechnology). The pre-cleared supernatants (500 μL) were collected after centrifugation, incubated with 10 μL of goat-anti-FITC antibody (AbCam) for 1.5 h followed by protein A/G sepharose for an additional 1.5 hours. The immunoprecipitation reactions were pelleted and washed three times with lysis buffer. The precipitated proteins were suspended in SDS-containing loading buffer, boiled, and the supernatants were processed by SDS-PAGE on 4-12% Bis-Tris gels (Invitrogen). The proteins were blotted into Immobilon-P membranes (Millipore). […]

Compound: CC(=O)NCCC(=O)N[C@@H](CC(C)C)C(=O)N[C@@H](CO)C(=O)N[C@@H](CCC(N)=O)C(=O)N[C@@H](CCC(N)=O)C(=O)N[C@H](C(=O)N[C@@H](Cc1ccccc1)C(=O)N[C@]1(C)CCCCCCC=CCCC[C@@](C)(C(=O)N[C@@H](CCC(N)=O)C(=O)N[C@@H](CC(N)=O)C(N)=O)NC(=O)[C@H](CC(C)C)NC(=O)[C@H](CC(C)C)NC(=O)[C@H](CCCNC(=N)N)NC(=O)[C@H](Cc2c[nH]c3ccccc23)NC(=O)[C@H](CC(C)C)NC(=O)[C@H](CC(N)=O)NC1=O)[C@@H](C)O [SAH-p53-6] (Ac-[βAla]LSQQTF[R8]NLWRLL[S5]QN-NH2; staple 8-15)
- helicity (circular dichroism): 14%
- Kd (HDM2): 56 ± 11 nM
- apoptosis induction (annexin V, FACS) (RKO cells): caused significant apoptosis

Compound: FITC-SAH-p53-8: N-terminally fluoresceinated SAH-p53-8
- co-immunoprecipitation of native HDM2 (anti-FITC pull down) (Native HDM2): co-immunoprecipitated

Reference: patent publication US9527896B2, “Stabilized p53 peptides and uses thereof” (DANA-FARBER CANCER INSTITUTE, INC., priority 2007, dated 2016)
